The source of these data is patent publication US12662540B2, “Compositions and methods for inhibition of MICA/B shedding” (DANA-FARBER CANCER INSTITUTE, INC., priority 2017, dated 2026).

One series relates to human NK cells. The series can be described thus: Intracellular interferon-γ production by NK cells co-cultured with tumor cells. The conditions noted are these: co-culture with tumor cells, antibody 10 μg/ml. The series is classed as cell-based. On the procedure:
NK cells were co-cultured for 6 hours at a ratio of 5:1 with tumor cells in the presence of Brefeldin-A (Biolegend). After the incubation time, Fc receptors were blocked, cells stained with NK cell markers, stained further with a dead cell marker (Zombie Yellow, Biolegend), and subsequently processed for intracellular interferon-γ labeling. Briefly, cells were fixed with BD Cytofix/Cytoperm™ Fixation and Permeabilization Solution (BD Pharmingen), permeabilized with Permeabilization Wash Buffer (Biolegend), and stained with APC-conjugated anti-human interferon-γ (4S.B3, Biolegend) or appropriate isotype control. Fluorescence spectra were acquired using a LSR Fortessa flow cytometer and analyzed by FlowJo.

The target of a further series is NKG2D binding to MICA (Homo sapiens, UniProt Q29983, C59Y/G229S/K148E/K196E/M152V/Q274R/S238T/T236I/T47A/W233R). The series can be described thus: Bead assay for NKG2D receptor binding to MICA. The conditions noted are these: MICA (allele 008) beads, human NKG2D-Fc dimer 10 μg/ml. As to the method:
Streptavidin-conjugated C4 beads (BD Pharmingen) were incubated for 2 hours with MICA biotinylated at a C-terminal BirA site (200 ng of MICA per 10,000 beads). Beads were then washed with PBS containing 1% FBS. For the NKG2D receptor binding assay, chimeric human NKG2D-Fc dimer (1299-NK-050, R&D Systems) was conjugated with Alexa^488 (A10468, Molecular Probes) and used at 10 μg/ml. Binding of murine NKG2D to human MICA was measured using NKG2D-Fc dimers (10 μg/ml) followed by an Alexa^488-conjugated anti-human IgG (Molecular Probes) that bound to the Fc region of the NKG2D-Fc dimer. MICA antibodies were also used as competitors for NKG2D dimer binding at concentrations of 10, 30 and 100 μg/ml. In these assays, NKG2D dimer and MICA antibodies were co-incubated with biotinylated MICA*008-conjugated beads.

The next series relates to B16F10-MICA cells. The series can be described thus: B16F10 metastasis model in immunocompetent mice. Format: in vivo, C57BL/6 mice. As to the method:
The B16F10 cells were transduced with the luciferase-based lentiviral vector to express MICA. B16F10-MICA cells (5×10^5) were injected intravenously into C57BL/6 mice through the tail vein. Fewer tumor cells (4×10^5) were injected into NK cell-deficient mice given that the absence of NK cells results in a very large number of metastases. 7C6 or isotype control antibodies (MPC-11 or C1184, BioXcell, which have mIgG2b and mIgG2a isotypes, respectively) were administered intraperitoneally on days 1, 2, 7 and 10 at a dose of 200 μg per mouse. Antibody blockade and depletion were performed as described previously (24). For antibody-based depletion of CD8 T cells or NK cells, 100 μg per mouse of anti-CD8 (5358, BioXcell), anti-NK1.1 (PK136, BioXcell), and anti-asialo(as)GM1 (Wako Chemicals) were given on days −1, 0, and 7. For antibody blockade, anti-NKG2D (HMG2D, BioXcell) or control IgG (MOPC-21) were given at 200 μg per mouse on days −1, 0, 5, 7 and 10. Blood samples were collected at multiple time points by retro-orbital bleeding under isoflurane anesthesia. Mice were euthanized by CO2 inhalation, lungs were perfused with PBS and fixed in formalin solution, and the number of superficial metastases was counted under a stereomicroscope. Histology was performed by the Rodent Histopathology Core of the Dana-Farber/Harvard Cancer Center using lungs that had not been perfused with PBS.
Macrophages were depleted by intravenous injection of 0.2 ml clodronate liposomes (Encapsula NanoSciences LLC). In the humanized and B16F10-MICA metastasis models, 0.2 ml of clodronate liposomes or control liposomes were injected i.v. (on the same day of tumor cell inoculation and then once weekly).

The subject of another series is A375 cells. The experiment in a line: NK cell cytotoxicity assay (51Cr release), human NK cells against human tumor cells. The series is classed as cell-based. The conditions noted are these: human NK cells; antibody added at time of killing assay (10 μg/ml, 66.7 nM). On the procedure:
Human NK cells were isolated from fresh leukapheresis blood collars that had been generated by Brigham & Women's Hospital, Boston, from healthy donors. Samples were diluted with an equal volume of PBS and blood mononuclear cells were isolated by Ficoll density gradient centrifugation. Cells were washed with PBS, and NK cells were isolated by negative selection using the Human NK Cell Isolation Kit (130-092-657, Miltenyi Biotech) using an autoMACS system (Miltenyi Biotech). Enriched NK cells (purity of 50-90%) were then incubated with anti-CD56 (PE or APC conjugated) and anti-CD3 (FITC or Pacific Blue conjugated) (Biolegend) and sorted using a BD FACS Aria. Following sorting, NK cell purity was ˜99%. These cells were cultured for twelve hours in complete RPMI media supplemented with 300-1000 U/ml of recombinant human IL-2 (BD Pharmingen).
Target cells were labeled for 1 hour with 100 μCi of ^51[Cr] per 2×10^6 cells in 0.2 ml of media. Subsequently, cells were washed and plated in V-bottom 96-wells plates (5,000 target cells per well). To determine the experimental release, NK cells were added in an equal volume, but at different ratios. To determine maximum and spontaneous release, target cells were mixed with an equal volume of 2% Triton-X100 in PBS or an equal volume of media, respectively. Antibodies were added at a final concentration of 10 μg/ml.
For experiments shown in FIGS. 1E, 10, and 13E antibodies were added at the time of the killing assay. For FIGS. 3A-B, antibodies were added to tumor cells 48 hours prior to labelling with ^51[Cr] to inhibit MICAS shedding. The isotype control antibody for assays with human NK cells was recombinant human IgG1 Fc (BE0096, BioXcell). […] At the end of the incubation period, plates were centrifuged (2000 rpm, 5 minutes), part of the supernatant was collected, mixed with scintillation fluid, and radioactivity was quantified using a MicroBeta2 reader (Perkin Elmer). Specific killing was calculated using the following formula: 100×(Experimental release−Spontaneous release)/(Maximum release−Spontaneous release).

“Also recorded” adds a separate entry of the source.

Chain of NKG2D binding to MICA (Q29983 24-307 T47A/C59Y/K148E/M152V/K196E/G229S/W233R/T236I/S238T/Q274R): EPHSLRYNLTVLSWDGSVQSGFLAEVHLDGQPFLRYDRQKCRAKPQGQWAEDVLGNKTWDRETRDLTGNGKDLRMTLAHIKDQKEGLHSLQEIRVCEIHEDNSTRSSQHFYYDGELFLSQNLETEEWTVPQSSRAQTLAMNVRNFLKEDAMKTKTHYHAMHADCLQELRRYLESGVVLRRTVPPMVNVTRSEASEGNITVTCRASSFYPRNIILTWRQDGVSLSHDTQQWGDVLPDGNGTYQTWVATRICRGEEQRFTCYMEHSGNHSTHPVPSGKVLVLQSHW

B1: 7C6: monoclonal antibody from mice immunized with recombinant MICA α3 domain; parental mIgG2b; VH SEQ ID NO: 7, VL SEQ ID NO: 8 (antibody)
VH: QIQLVQSGPELKKPGETVKVSCKASGYMFTNYAMNWVKQAPEKGLKWMGWINTHTGDPTYADDFKGRIAFSLETSASTAYLQINNLKNEDTATYFCVRTYGNYAMDYWGQGTSVTVSSAKTTAPSVYPLAPVCGDTTGSSVTLGCLVKGYFPEPVTLTWNSGSLSSGVHTFPAVLQSDLYTLSSSVTVTSS
VL: DIQMTQTTSSLSASLGDRVTISCSASQDISNYLNWYQQKPDGTVKLLIYDTSILHLGVPSRFSGSGSGTDYSLTISNLEPEDIATYYCQQYSKFPRTFGGGTTLEIK
modifications: mAb 7C6 heavy chain amino acid sequence; mAb 7C6 light chain amino acid sequence
In the case of B1, the “IFNγ (cytokine) production by human NK cells” value in the series with human NK cells was “increases NK cell cytotoxicity and cytokine production”. Also, the “inhibition of NKG2D receptor binding to MICA” value with NKG2D binding to MICA was “do not inhibit NKG2D receptor binding”. Besides, the “shed MICA in serum” value in the series with B16F10-MICA cells (B16F10-MICA i.v. in C57BL/6 mice) is “undetectable; also recorded: reduced shed MICA in the sera”. Further, the “therapeutic activity against lung metastases after NK cell or CD8 T cell depletion” value in the series with B16F10-MICA cells (anti-asGM1, anti-NK1.1 or anti-CD8β) is recorded as “NK cells, but not CD8 T cells, were essential for the therapeutic activity”. For the same molecule, in the series with B16F10-MICA cells (lung metastases day 14), the “therapeutic activity in Prf1−/− and Ifng−/− mice” value is recorded as “therapeutic efficacy was lost in perforin (Prf1) but not IFNγ (Ifng) deficient mice; also recorded: Perforin but not interferon-γ expression is required for therapeutic activity”. Moreover, in the series with A375 cells, the “NK cell mediated cytotoxicity against human tumor cells” value is “increases NK cell cytotoxicity”.
